Experimental data published in patent publication US8841270B2, “Use of inhibitors of Zdhhc2 activity for modulation of adipogenesis” (Sanofi, priority 2009, dated 2014).

Experiments:
C57BL/6J mice = experiment: Rimonabant treatment of high fat diet fed mice, glucose tolerance; assay type: in vivo, mouse; details: HFD C57BL/6J mice, rimonabant 10 mg·kg−1·day−1 for one month
From the text: C57BL/6J mice, which are obesity-prone (5), were fed for 6 months with a high fat diet (HFD).

3T3-L1 cells = experiment: Adipogenesis of retrovirally transduced 3T3-L1 cells (oil-red-O staining, aP2 mRNA by RT-PCR); assay type: cell-based, mouse
Experimental: 3T3-L1 cells were cultured in DMEM (Gibco) with 10% FBS (Gibco) at 5% CO2. After retroviral infection (see below), cells were allow to grow to confluence in either 100-mm or 60-mm dishes in DMEM with 10% FBS. Once confluence was reached, cells were exposed to differentiation medium containing dexamethasone (1 μM), insulin (5 μg/ml), and isobutylmethylxanthine ([…]) (DMI). After 2 days cells were maintained in medium containing insulin ([…]) until ready for harvest at 7 days.
After 7 to 10 days of differentiation, cells were washed once in PBS and fixed with formaldehyde (Formalde-fresh; Fisher) for 15 minutes. The staining solution was prepared by dissolving 0.5 g oil-red-0 in 100 ml of isopropanol; 60 ml of this solution was mixed with 40 ml of distilled water. After 1 hour at room temperature the staining solution was filtered and added to dishes for 4 hours. The staining solution was then removed and cells were washed twice with distilled water.
Retroviruses were constructed in the RNAi-Ready pSIREN-RetroQ ZsGreen (pSIREN Clontech). Viral constructs were transfected using calcium-phosphate method described in Jordan, M. et al. (2004) into 293 HEK packaging cells along with constructs encoding gag-pol and the VSV-G protein. […]

Zdhhc2 = experiment: shRNA knockdown of Zdhhc2 expression, mRNA by RT-PCR; assay type: cell-based, mouse; details: shRNA in pSIREN plasmid, tested in 293T HEK cells; mRNA by RT-PCR (FIG. 3A)
From the text: shRNAs were constructed using the RNAi-Ready pSIREN-RetroQ ZsGreen (Clontech). Target sequences for Zdhhc2 were designed by querying the Whitehead siRNA algorithm (http://jura.wi.mit.edu/bioc/siRNAext/) as well as the siRNA designer software from Clontech (http://bioinfo.clontech.com/rnaidesigner/); at least two sequences represented by both algorithms were subcloned into the pSIREN vectors (Clontech) using the EcoRI and BamH1 restriction sites. The following target sequences for Zdhhc2 were chosen SEQ ID NO. 5 and 6 as a negative control, we used the following siRNA sequence against luciferase: SEQ ID NO. 7.
The specificity of shRNAs was tested in 293T HEK cells co-transfected using calcium-Phosphate methods described in (14) with expression vectors containing Zdhhc2 cDNA and the RNAi-Ready pSIREN-RetroQ ZsGreen vector expressing either the shRNA against lucifeare (control shLUC) or Zdhhc2 (shZdhhc2). RT-PCR analysis was performed on cell RNA-extraction 24 h after transfection.
Total RNA was isolated from cultured cells using peqGOLD TriFast reagent according to the manufacturer's instructions (Axonlab). First strand cDNA was synthesized from 0.5 μg of total RNA using random primers and Superscript II (Invitrogen). […]
For the loss-of-function studies, shRNA specific for Zdhhc2 subcloned into a retroviral vector from Clontech were used (RNAi-Ready pSIREN-RetroQ ZsGreen or pSIREN). […]

## Cc1c(C(=O)NN2CCCCC2)nn(-c2ccc(Cl)cc2Cl)c1-c1ccc(Cl)cc1 [rimonabant]
C57BL/6J mice
  glucose tolerance: normalized glucose tolerance

B1: shLuc: negative control shRNA directed against luciferase, SEQ ID NO. 7 (nucleic acid)
chain: GATCCGTGCGTTGCTAGTACCAATTCAAGAGATTGGTACTAGCAACGCACTTTTTTACGCGTG
3T3-L1 cells; 3T3-L1 cells, oil-red-O staining and aP2 expression at day 9
  inhibition of adipogenesis in vitro: no inhibition

B2: shZdhhc2-2: shRNA specific for Zdhhc2 in pSIREN retroviral vector; target sequence probably SEQ ID NO. 6 (nucleic acid)
DNA: GATCCGTATGAGCAACCCTGCATTTCAAGAGAATGCAGGGTTGCTCATACTTTTTTACGCGTG
3T3-L1 cells; infected 3T3-L1 cells, day 9 of differentiation with DMI, RT-PCR
  aP2 expression decreased: 60%
Zdhhc2
  knockdown of Zdhhc2 expression: 50%
